± gives the standard deviation of the averaged measurements.

Data on 50 sequences can be found in the supplement of paper PMC10724198.

In the series the test system is Saccharomyces cerevisiae. Description: protein stability index of tFT-peptide fusion (C-terminal peptide) (PSI (0-1 scale)); higher = more stable (slower turnover). Particulars: temperature: 30 C. The procedure:
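MPS profiling in S. cerevisiae of the yeast C-terminome library: the last 12 aa of each annotated ORF are fused to the C-terminus of a sfGFP-mCherry timer, after a GGGS linker. Cells are FACS-sorted into 8 mCherry/sfGFP bins and deep-sequenced. PSI runs from 0 (unstable) to 1 (stable); wild type and das1Δ backgrounds, two technical replicates each.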

The mark [1] stands for this setting: genetic background: das1 deletion.

As for RQRRLQAAGRWF [PCP1 C-terminal 12 aa], the protein stability index was found to be 0.716 ± 0.014 under setting [1] and 0.6854 ± 0.0044 (genetic background: wild type).

RRKITLIEDDEE [SAS3 C-terminal 12 aa] showed a protein stability index under setting [1] of 0.715 ± 0.011 and a protein stability index (genetic background: wild type) of 0.672 ± 0.019.

As to RRLKNKQRTRFQ [YNR021W C-terminal 12 aa], the protein stability index is, setting by setting: under setting [1], 0.7264 ± 0.0013; (genetic background: wild type) 0.698 ± 0.023.

In the case of RRMKLKERKRTT [YBL029W C-terminal 12 aa], the protein stability index came to 0.713 ± 0.022 under setting [1] and 0.655 ± 0.05 (genetic background: wild type).

Sequence RRNRGTPVKYTR [DOT1 C-terminal 12 aa] came in with a protein stability index under setting [1] of 0.6965 ± 0.0024 and a protein stability index (genetic background: wild type) of 0.7 ± 0.016.

On to RSHKCYPHDVRF [NAT3 C-terminal 12 aa], for which the protein stability index turned out to be 0.7614 ± 0.0011 under setting [1] and 0.662 ± 0.024 (genetic background: wild type).

For RSVGKNSEKVST [QDR1 C-terminal 12 aa], the protein stability index under setting [1] came to 0.6986 ± 0.0019 and the protein stability index (genetic background: wild type) was determined as 0.695 ± 0.01.

In the case of RTANVVGLDVPT [FMC1 C-terminal 12 aa], the protein stability index under setting [1] turned out to be 0.683 ± 0.017 and the protein stability index (genetic background: wild type) stood at 0.6639 ± 0.0044.

Regarding RTAYILMYQKRN [UBP3 C-terminal 12 aa], the protein stability index is, setting by setting: under setting [1], 0.782 ± 0.014; (genetic background: wild type) 0.1351 ± 0.00015.

Take RTLTTGNYHGLA [SYP1 C-terminal 12 aa]: the protein stability index came to 0.6833 ± 0.0056 under setting [1] and 0.6781 ± 0.0046 (genetic background: wild type).

Regarding RVRRRLFAPEST [SLD3 C-terminal 12 aa], the protein stability index reads like this: under setting [1], 0.716 ± 0.018; (genetic background: wild type) 0.802 ± 0.075.

Take RYRLSQRQESKK [MRX4 C-terminal 12 aa]: the protein stability index runs as follows: under setting [1], 0.698 ± 0.011; (genetic background: wild type) 0.682 ± 0.021.

For the sequence SAIENYRKAYGI [URA10 C-terminal 12 aa], the protein stability index is, setting by setting: under setting [1], 0.664 ± 0.038; (genetic background: wild type) 0.69935 ± 0.00068.

Take SALILMYKGFGL [UBP6 C-terminal 12 aa]: the protein stability index reads like this: under setting [1], 0.664 ± 0.022; (genetic background: wild type) 0.683 ± 0.015.

SALNKIKADEKK [ACO1 C-terminal 12 aa] yielded a protein stability index under setting [1] of 0.689 ± 0.024 and a protein stability index (genetic background: wild type) of 0.684 ± 0.024.

Take SDEEPSSKKRKV [VPS75 C-terminal 12 aa]: the protein stability index under setting [1] is 0.703 ± 0.035 and the protein stability index (genetic background: wild type) turned out to be 0.678 ± 0.01.

Consider SDQKGGRSVSTS [YLR001C C-terminal 12 aa], for which the protein stability index by setting is: under setting [1], 0.6896 ± 0.0021; (genetic background: wild type) 0.734 ± 0.017.

On to SEGLQFLQREKK [MSE1 C-terminal 12 aa], for which the protein stability index runs as follows: under setting [1], 0.711 ± 0.011; (genetic background: wild type) 0.681 ± 0.011.

Consider SEVKGYSKLNIV [ASI3 C-terminal 12 aa], for which the protein stability index is, setting by setting: under setting [1], 0.695 ± 0.026; (genetic background: wild type) 0.668 ± 0.035.

With SFFIYVNFTVYF [YCR001W C-terminal 12 aa], the protein stability index reads like this: under setting [1], 0.175 ± 0.036; (genetic background: wild type) 0.178 ± 0.033.

For the sequence SFHKEFFDQYRD [ALT1 C-terminal 12 aa], the protein stability index reads like this: under setting [1], 0.7326 ± 0.0045; (genetic background: wild type) 0.774 ± 0.048.

For SFVKIQDAIKKT [MRPL9 C-terminal 12 aa], the protein stability index is, setting by setting: under setting [1], 0.7417 ± 0.0063; (genetic background: wild type) 0.627 ± 0.015.

SGETSDIIFRNY [ADK2 C-terminal 12 aa] returned a protein stability index under setting [1] of 0.74 ± 0.023 and a protein stability index (genetic background: wild type) of 0.786 ± 0.012.

On to SGKRGVGKTDFR [NOG1 C-terminal 12 aa], for which the protein stability index is, setting by setting: under setting [1], 0.716 ± 0.00084; (genetic background: wild type) 0.6901 ± 0.00098.

Turning to SGPVEELVSPSK [IRC8 C-terminal 12 aa], the protein stability index runs as follows: under setting [1], 0.7034 ± 0.0033; (genetic background: wild type) 0.685 ± 0.032.

With SHEQKFENVQKE [STF2 C-terminal 12 aa], the protein stability index was 0.711 ± 0.017 under setting [1] and 0.705 ± 0.012 (genetic background: wild type).

With SISVLFDSLAAL [PRS1 C-terminal 12 aa], the protein stability index runs as follows: under setting [1], 0.714 ± 0.0093; (genetic background: wild type) 0.736 ± 0.022.

For SKADSYRSVIRH [DLT1 C-terminal 12 aa], the protein stability index is, setting by setting: under setting [1], 0.667 ± 0.037; (genetic background: wild type) 0.675 ± 0.023.

Turning to SKFGSIFKKVFG [YGR237C C-terminal 12 aa], the protein stability index came out at 0.689 ± 0.017 under setting [1] and 0.775 ± 0.077 (genetic background: wild type).

Take SKKVICNTFGYN [DDI2 C-terminal 12 aa]: the protein stability index is, setting by setting: under setting [1], 0.689 ± 0.027; (genetic background: wild type) 0.733 ± 0.1.

SKMLKNKIPLKN [YGL138C C-terminal 12 aa]: the protein stability index is 0.667 ± 0.0083 under setting [1] and 0.685 ± 0.039 (genetic background: wild type).

SKREFIESLRPK [SKG1 C-terminal 12 aa]: the protein stability index is 0.707 ± 0.029 under setting [1] and 0.679 ± 0.03 (genetic background: wild type).

As to “SLCKNTIISSSV [YAL063C-A C-terminal 12 aa]”, the protein stability index by setting is: under setting [1], 0.693 ± 0.023; (genetic background: wild type) 0.703 ± 0.035.

In the case of SLDDFGVDVDME [PFA4 C-terminal 12 aa], the protein stability index under setting [1] was determined as 0.711 ± 0.016 and the protein stability index (genetic background: wild type) stood at 0.683 ± 0.016.

As to SLDQEIQSLLSK [GPX2 C-terminal 12 aa], the protein stability index worked out at 0.6903 ± 0.0018 under setting [1] and 0.654 ± 0.028 (genetic background: wild type).

For the sequence SLFPRDPKRLRP [DPS1 C-terminal 12 aa], the protein stability index by setting is: under setting [1], 0.7133 ± 0.0054; (genetic background: wild type) 0.6987 ± 0.0031.

Turning to SLIKQVGVKLDR [JHD2 C-terminal 12 aa], the protein stability index under setting [1] was determined as 0.671 ± 0.025 and the protein stability index (genetic background: wild type) turned out to be 0.67 ± 0.013.

Sequence SLPLVSLFIVLA [YJL064W C-terminal 12 aa] returned a protein stability index under setting [1] of 0.267 ± 0.019 and a protein stability index (genetic background: wild type) of 0.268 ± 0.0062.

As for SLYTLNYNVKNP [ATG17 C-terminal 12 aa], the protein stability index reads like this: under setting [1], 0.7157 ± 0.0035; (genetic background: wild type) 0.6907 ± 0.00092.

Regarding “SMHAFLCKIYKR [YCR095W-A C-terminal 12 aa]”, the protein stability index by setting is: under setting [1], 0.701 ± 0.02; (genetic background: wild type) 0.6761 ± 0.0035.

For the sequence SMPLYKDVQKDA [RBK1 C-terminal 12 aa], the protein stability index reads like this: under setting [1], 0.717 ± 0.027; (genetic background: wild type) 0.665 ± 0.015.

On to SMTTTNFSDFSL [UPC2 C-terminal 12 aa], for which the protein stability index runs as follows: under setting [1], 0.6932 ± 0.0047; (genetic background: wild type) 0.688 ± 0.036.

With SNDDFRKMFLGE [PRP24 C-terminal 12 aa], the protein stability index is, setting by setting: under setting [1], 0.725 ± 0.011; (genetic background: wild type) 0.708 ± 0.01.

SNSNQHFGNVTF [IME2 C-terminal 12 aa] displayed a protein stability index under setting [1] of 0.713 ± 0.0014 and a protein stability index (genetic background: wild type) of 0.6829 ± 0.0059.

SPAHSFEKIQKI [ERF2 C-terminal 12 aa]: the protein stability index by setting is: under setting [1], 0.692 ± 0.015; (genetic background: wild type) 0.688 ± 0.029.

Take SPYDWFRNTETP [DER1 C-terminal 12 aa]: the protein stability index by setting is: under setting [1], 0.726 ± 0.035; (genetic background: wild type) 0.737 ± 0.0089.

For SQVLPESERRLD [ATG22 C-terminal 12 aa], the protein stability index was found to be 0.675 ± 0.013 under setting [1] and 0.676 ± 0.03 (genetic background: wild type).

For the sequence SRIQNASASGEI [TIM13 C-terminal 12 aa], the protein stability index under setting [1] turned out to be 0.685 ± 0.015 and the protein stability index (genetic background: wild type) is 0.715 ± 0.015.

As for SRSNSHRTFFKR [FPK1 C-terminal 12 aa], the protein stability index runs as follows: under setting [1], 0.737 ± 0.053; (genetic background: wild type) 0.714 ± 0.043.

With SSLSFLSSFVDI [VAM10 C-terminal 12 aa], the protein stability index turned out to be 0.708 ± 0.025 under setting [1] and 0.702 ± 0.048 (genetic background: wild type).
